Test results taken from patent US8697349.

What was measured:
[1] = target: Cy5-labeled Goat anti mouse IgG (AP127S, available from CHEMICON International Inc.) (goat); assay: Rabbit anti goat IgG fixed on AZO film via synthetic peptides, probed with Cy5-labeled goat IgG, array scanner; reference: antibody directly light-fixed
[2] = target: Cy5-labeled Goat anti mouse IgG (AP127S, available from CHEMICON International Inc.) (goat); assay: Cy5 fluorescence of antibody at peptide spot on AZO film after 17 h light irradiation, array scanner; reference: water instead of peptide

Molecule | immobilized antibody activity, fold over Comparative Example 2 [1] [fold] | fixability, fold over Comparative Example 1 [2] [fold]
anti goat IgG rabbit-IgG (A50-100A, available from Bethyl Laboratories, Inc.) (antibody) | 3 to 30 | –
FATAIAAIAAAI [synthetic peptide FAT …] | – | > 10
IASAIAAIAAAI [synthetic peptide IAS …] | – | > 10
IMTAIAAIAAAI [synthetic peptide IMT …] | – | > 10
IAYAIAAIAAAI [synthetic peptide IAY …] | – | > 10
ATAAIAAIAAAI [synthetic peptide ATA …] | – | > 10
IATAIAAIAAAI [synthetic peptide IAT …] | – | > 10
IAEAIAAIAAAI [synthetic peptide IAE …] | – | > 10
IHTAIAAIAAAI [synthetic peptide IHT …] | – | > 10
FAAAIAAIAAAI [synthetic peptide FAA …] | – | > 10
IPTAIAAIAAAI [synthetic peptide IPT …] | – | > 10
IAAAIAAIAAAI [synthetic peptide IAA …] | – | > 10
IAIAIAAIAAAI [synthetic peptide IAI …] | – | > 10
IGSAIAAIAAAI [synthetic peptide IGS …] | – | > 10
IITAIAAIAAAI [synthetic peptide IIT …] | – | > 10
AAAAIAAIAAAI [synthetic peptide AAA …] | – | > 10
AATAIAAIAAAI [synthetic peptide AAT …] | – | > 10
INSAIAAIAAAI [synthetic peptide INS …] | – | > 10

Continued, values first:

immobilized antibody activity, fold over Comparative Example 2 [1] [fold] | fixability, fold over Comparative Example 1 [2] [fold] | Molecule
– | > 10 | LATAIAAIAAAI [synthetic peptide LAT …]
– | > 10 | LAAAIAAIAAAI [synthetic peptide LAA …]
– | > 10 | QAAAIAAIAAAI [synthetic peptide QAA …]
– | > 10 | IQSAIAAIAAAI [synthetic peptide IQS …]
– | > 10 | ITSAIAAIAAAI [synthetic peptide ITS …]
– | > 10 | ITTAIAAIAAAI [synthetic peptide ITT …]
– | > 10 | WATAIAAIAAAI [synthetic peptide WAT …]
– | > 10 | IVSAIAAIAAAI [synthetic peptide IVS …]
– | > 10 | ISTAIAAIAAAI [synthetic peptide IST …]
– | > 10 | PATAIAAIAAAI [synthetic peptide PAT …]
– | > 10 | VATAIAAIAAAI [synthetic peptide VAT …]
– | > 10 | VAAAIAAIAAAI [synthetic peptide VAA …]
– | > 10 | PAAAIAAIAAAI [synthetic peptide PAA …]
– | > 10 | IQTAIAAIAAAI [synthetic peptide IQT …]
– | > 10 | ISSAIAAIAAAI [synthetic peptide ISS …]
